According to patent publication US7060670B1, “Stereoselective antifibrillogenic peptides and peptidomimetics thereof” (Neurochem (International) Limited, priority 1999, dated 2006):
Entries after “also recorded” stand apart in the source; their conditions may differ. Non-standard residues stand in square brackets, D forms with d. No end group written: not given here.

Assays:
[1] = tested on: 125I-LBMP1620; details: peptide synthesized by SPOT technique; cited from earlier work
[2] = target: T1, Aβ(1–40) (Homo sapiens, UniProt P05067); assay: thioflavin T fluorescence assay for fibrillogenesis of Aβ(1–40); type: biochemical; details: for Order Of Potency of Peptide Inhibitors, Tested at 20 μM / Order Of Potency of Peptide Inhibitors, Tested at 80 μM: rank, 1 = strongest activity, 11 = weakest, Aβ(1–40) 20 μM, by first appearance of fluorescence over 5-90 hours; for Order Of Potency of Peptide Inhibitors, Tested at 20 μM: peptide 20 μM; for Order Of Potency of Peptide Inhibitors, Tested at 80 μM: peptide 80 μM; for inhibition of [L]-Aβ (1–40) assembly/fibrillogenesis compared with the opposite stereoisomer: FIG. 2, all-[L] Aβ (1–40); for concentration required to give an equivalent inhibition: all-[D] versus all-[L] stereoisomer
T1 construct: Aβ (1–40) 95% purity (American Peptide Company); purchased American Peptide Company, Inc 62-0-78
Description: The thioflavin T fluorescence assay for fibrillogenesis is based on the principle that the fluorescent dye, thioflavin T, binds specifically to fibrillar, but not to unaggregated Aβ peptide (LeVine III, H., 1993, Protein Science 2:404–410). Upon binding, thioflavin T develops a characteristic fluorescence (Naiki, H., et al., 1996, Lab. Invest. 74: 374–383) which can be easily detected. The dye is believed to interact with the stacked cross-β pleated sheets, the common structural motif of all amyloids (LeVine III, H., 1995, Amyloid: Int. J. Exp. Clin Invest. 2:1.6). Thioflavin T is widely used to assay the effect of compounds on Aβ peptide fibrillogenesis (Bronfman, P. C., et al., 1995, Neuroscience Lett. 218:201–203). In this assay test compounds are incubated with a solution of Aβ(1–40) (20 μM) containing 10 μM thioflavin T, in 0.02M Tris/0.02M acetate/0.15M NaCl/0.005% azide/pH 7.40 at 37° C. in sealed 384 well microplates. Readings (ex 430 nm/em 485 nm) are taken at various time intervals with a microplate fluorescence reader. An increase in fluorescence signifies the appearance of amyloid or intermediates in the production of amyloid. Inhibitors of fibrillogenesis will lead to less fluorescence production. The results illustrated in Table 1 below, are based on the fluorescence production in the presence of test peptides at either 20 μM or 80 μM concentration, at the time intervals of 5, 19, 45, 67, 77 and 90 hours, compared to a control, buffer alone, without added inhibitory peptide. Protocol Aβ peptide: Aβ (1–40) 95% purity (American Peptide Company, Inc, Sunnyvale, Cal. USA, cat. 62-0-78) is disaggregated in trifluoroacetic acid and filtered through a […] filter, (Whatman Anotop 25 plus, 0.02 μm, Catalogue no. 6809 4102) in hexafluoroisopropanol (HFIP). Solutions of Aβ (1–40) at 600 μM in HFIP are stored at −80° C. Assay mixture: The mixture is prepared as two solutions that are combined upon addition to the 384 well microplate (Corning Costar cat. 3705). • i) Solution A consists of test peptides in 0.02M Tris/0.02M acetate/0.15M NaCl/0.01% azide at pH 7.40 or buffer alone (control), • ii) Solution B consists of Aβ(1–40) 40 μM, thioflavin T 20 μM in 0.02M Tris/0.02M acetate/0.15M NaCl at pH 7.40. This solution is prepared by drying the Aβ peptide under nitrogen and then resuspending this in 0.04M Tris base with 15 minutes sonication. An equal volume of 0.04M acetic acid containing 0.3 M NaCl is added and the solution is adjusted to pH 7.40±0.02. A small volume of 5 mM thioflavin T is added to the solution to give a final 20 μM concentration of thioflavin T. • iii) The microplate is loaded with 40 μL of solution A followed by 40 μL of solution B which gives a final 20 μM Aβ(1–40), 10 μM thioflavin T, and either 20 μM, 80 μM or 100 μM test compound in 0.02M Tris/0.02M acetate/0.15M NaCl/0.005% azide, pH 7.40. The plate is sealed and loaded into the microplate fluorescence reader. Fluorescence measurement data analysis: The HTS-7000 Bio Assay Reader, Perkin Elmer, is used to perform kinetic runs of about 5 days. Readings were taken at various time intervals, 5, 19, 45, 67, 77 and 90 hours, with one minute shaking before each reading. Bandpass filters used were: excitation 430 nm, emission […]. Calculations The rank order of efficacy of the peptides is determined by observing which peptides allow the appearance of fluorescence, above the background level, first. For example in the presence of buffer control alone, fluorescence appears earlier than when any of the peptides is present.

[3] = tested on: fetal rat primary cortical neurons; assay: propidium iodide assay on primary cortical neurons with Aβ; type: cell-based; details: FIG. 7; compared to Congo red and Aβ alone; 3 days; listed as all-[D]-Lys-Leu-Val-Phe-Phe-Ala
Description: FIG. 7 uses the propidium iodide assay on primary cortical neurons. Briefly, fetal rat primary cortical neurons are isolated and cultured according to Durkin, J. P. et al., J. Neurochem., 66:951–962, 1996. Neurons are plated in a 48 well microplate. 7 days after plating the neuronal culture media is supplemented with B27 (Life Technologies, Data sheet form No. 3755). A mixture of Aβ and test peptide is added to the cortical neurons for 3 days at 37° C. and 5% CO2.
Cell viability is then visually assessed as the proportion of phase-bright cells that exclude propidium iodide, since only dead cells take up propidium iodide.

[4] = target: T2, IAPP (Homo sapiens, UniProt P10997); assay: IAPP fibril formation (thioflavin T assay, circular dichroism, electron microscope); type: biochemical; details: circular dichroism and thioflavin T assay
T2 sequence (P10997 34-70 limits assumed): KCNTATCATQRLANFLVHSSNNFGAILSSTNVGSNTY
Description: Other amyloidogenic peptides such as IAPP, have also been tested.
The full-length IAPP is 37 amino acids and the β-sheet region is the 20–29 sequence. The 20–29 sequence is critical for forming β-sheet and has been previously shown to be a key region in modulating IAPP aggregation and folding.
Hexapeptides spanning the 20–29 region (Ser-Asn-Asn-Phe-Gly-Ala-Ile-Leu-Ser-Ser) of the IAPP protein were synthesized and tested for their ability to prevent fibril formation as determined by circular dichroism and the thioflavin T assay. […] These peptides (Ser-Asn-Asn-Phe-Gly-Ala- and Asn-Asn-Phe-Gly-Ala-Ile) were directed towards the central core of the 20–29 region.

[5] = target: T3, Aβ40 (Homo sapiens, UniProt P05067); assay: CD spectrum of Aβ40 incubated with peptide (β-sheet content); type: biochemical; details: for β-sheet content of Aβ40 by CD spectrum at time t=0: physiological conditions
T3 construct: when incubated with Aβ40 under physiological conditions
Description: (§1) It is the understanding of the inventors that this interesting observation will lead to a greater understanding of fibrillogenesis of Aβ40 and Aβ42 peptides and as a result, will provide important information for the design of potent anti-fibrillogenic compounds for Aβ, other amyloidotic peptides such as AA, AL and IAPP for the treatment of diseases such as Alzheimer's, Type II Diabetes and amyloidosis related disorders. The same principle can also be applied to the design of peptide type compounds for the inhibition of binding of various chemokines to the cell surface as well as inhibition of self assembly and cellular adherence of prion proteins.

[6] = target: T3, Aβ40; assay: electron microscopy of peptide/Aβ40 mixture; type: biochemical; details: mixture of peptide and Aβ40
Description: as §1

[7] = target: Aβ (Homo sapiens, UniProt P05067); assay: Aβ-NBD environmental probe fibrillogenesis assay; type: biochemical
[8] = tested on: all-[D]-Aβ (1–40); assay: thioflavin T fluorescence assay for fibril formation by [D]-Aβ (1–40); type: biochemical; details: FIG. 3
[9] = tested on: SH-SY5Y human neuroblast cell line; assay: MTT cytoprotection assay, Aβ (1–40) toxicity on SH-SY5Y cells; type: cell-based; details: FIG. 6, 100 μM test peptide, listed as all-[D]-Lys-Lys-Leu-Val-Phe-Phe-Ala
Description: FIG. 6 uses the MTT assay on SH-SY5Y cells.
A SH-SY5Y human neuroblast cell line (American Type Culture Collection, cat. CRL-2266) is cultured according to technical specifications. Monomerized Aβ (1–40) is prepared using trifluoroacetic acid and hexafluoroisopropanol, in the same way already described for the thioflavin T fluorescence assay. Monomerized Aβ at various concentrations in TANA buffer (0.02 M TRIS base pH 7.4, 0.02M acetate, 0.15 M NaCl) is added to 100 μM test peptide and the mixture is incubated for 24 hours at 37° C. with agitation, in order to allow polymerization to occur. Cells are adhered to a 96-well microplate for 2 hours at 37° C. and 5% CO2 before the Aβ-peptide mixture, or buffer alone (control), is added. The microplate is gently agitated and incubated for 20–24 hours at 37° C. and 5% CO2. Cell viability is determined by a MTT-based colorimetric assay. The MTT assay (Boehringer Mannheim, Cell Proliferation Kit 1) is based on the principle that the yellow tetrazolium salt MTT is cleaved in metabolically-active cells to produce purple formazan crystals. The formazan crystals are solubilized and the resulting colored solution is quantified using a scanning multiwell spectrophotometer (ELISA reader, Absorbance A560 nm). Cellular toxicity was calculated as follows: […]

Aβ, sequence (P05067 672-711 limits assumed): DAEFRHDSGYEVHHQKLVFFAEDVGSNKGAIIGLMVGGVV
T1 sequence (P05067 672-711 limits assumed): as above
T3 sequence (P05067 672-711 limits assumed): as above

Substance | Order Of Potency of Peptide Inhibitors, Tested at 20 μM [2] | Order Of Potency of Peptide Inhibitors, Tested at 80 μM [2] | further results
Lys-Leu-Val-Phe-Phe [(D) KLVFF] | 9 (D) KLVFF | 10 (D) KLVFF | 125I-LBMP1620 binding [1]: failed to bind
Lys-Leu-Val-Phe-Phe-Ala [(D) KLVFFA] ([dK][dL][dV][dF][dF][dA]) | 3 (D) KLVFFA | 1 (D) KLVFFA | cytoprotective activity against Aβ [3]: potent cytoprotective agents; also recorded: potent cytoprotective activity; inhibition of [L]-Aβ (1–40) assembly/fibrillogenesis compared with the opposite stereoisomer ([2]; listed as all [D]-Lys-Leu-Val-Phe-Phe-Ala): more potent inhibitor; inhibition of [L]-Aβ (1–40) assembly/fibrillogenesis compared with the opposite stereoisomer ([2]; listed as all-[D]-Lys-Leu-Val-Phe-Phe-Ala): much more potent inhibitors
AFFVLK [reference compound] | 11 (L) AFFVLK | 11 (L) AFFVLK | 
Lys-Ile-Val-Phe-Phe-Ala ([dK][dI][dV][dF][dF][dA]) [(D) KIVFFA] | 1 (D) KIVFFA | 5 (D) KIVFFA | 
SNNFGA [hexapeptide from the 20–29 β-sheet region of IAPP] |  |  | blocking of IAPP fibril formation [4]: capable of blocking the formation of IAPP fibrils
Asp-Asp-Asp (DDD; peptide having antifibrillogenic activity and/or neuroprotection) [tripeptide] |  |  | β-sheet content of Aβ40 by CD spectrum after 24 hours incubation [5]: no trace of β-sheet conformation; β-sheet content of Aβ40 by CD spectrum at time t=0 [5]: slight decrease
Lys-Ala-Val-Phe-Phe-Ala ([dK][dA][dV][dF][dF][dA]) [(D) KAVFFA] | 7 (D) KAVFFA | 6 (D) KAVFFA | 
Lys-Leu-Val-Phe ([dK][dL][dV][dF]) [(D) KLVF] | 6 (D) KLVF | 9 (D) KLVF | 
Lys-Phe-Val-Phe-Phe-Ala ([dK][dF][dV][dF][dF][dA]) [(D) KFVFFA] | 4 (D) KFVFFA | 1 (D) KFVFFA | 
KKLVFFA [reference compound] | 10 (L) KKLVFFA | 7 (L) KKLVFFA | concentration required to give an equivalent inhibition [2]: 400 µM
KVDDQD [hexapeptide] |  |  | β-sheet content of Aβ40 by CD spectrum after 24 hours incubation [5]: dramatic increase; β-sheet content of Aβ40 by CD spectrum at time t=0 [5]: increase; fibrils seen by electron microscopy [6]: failed to show any fibrils; anti-fibrillogenic activity in thioflavin-T based fluorescence assay ([2]; in vitro): confirm this finding; anti-fibrillogenic activity in NBD based fluorescence assay ([7]; in vitro): confirm this finding
KLVFFA [reference compound] | 8 (L) KLVFFA | 8 (L) KLVFFA | inhibition of all-[D]-Aβ (1–40) assembly compared with the opposite stereoisomer [8]: more potent inhibitor
Lys-Lys-Leu-Val-Phe-Phe-Ala [(D) KKLVFFA] ([dK][dK][dL][dV][dF][dF][dA]) | 2 (D) KKLVFFA | 1 (D) KKLVFFA | inhibition of [L]-Aβ (1–40) assembly/fibrillogenesis compared with the opposite stereoisomer [2]: much more potent inhibitors; concentration required to give an equivalent inhibition ([2]; listed as all-[D] stereoisomer peptide): 6.1 µM; potency of all-[D] relative to all-[L] stereoisomer peptide ([2]; from 400 μM all-[L] versus 6.1 μM all-[D]): about 60 times; inhibition of Aβ (1–40) neurotoxicity (cytoprotection) [9]: potent cytoprotective agents; also recorded: more potent inhibitor; potency at lowest concentration tested versus highest concentration of all-[L] peptide ([7]; all-[D] 25 μM versus all-[L] 800 μM): more potent than the highest concentration of the all-[L] peptide; potency of all-[D] relative to all-[L] stereoisomer peptide ([7]; estimate from 25 μM all-[D] versus 800 μM all-[L]): at least 30 times
Ala-Phe-Phe-Val-Leu-Lys [(D) AFFVLK] ([dA][dF][dF][dV][dL][dK]) | 5 (D) AFFVLK | 1 (D) AFFVLK | 
NNFGAI [hexapeptide from the 20–29 β-sheet region of IAPP] |  |  | blocking of IAPP fibril formation [4]: capable of blocking the formation of IAPP fibrils
